Data on one molecule can be found in article PMC4431178, “Molecular basis of sugar recognition by collectin-K1 and the effects of mutations associated with 3MC syndrome” (BMC Biology, 2015).

In this experiment the target is T1, CL-K1 (Homo sapiens, UniProt Q9BWP8).
T1 construct: For full-length protein, the cDNA was cloned into the polylinker region of expression vector pED; made in house; host or cells: Chinese hamster ovary cells
The experiment can be described thus: Surface plasmon resonance of CL-K1 binding to glycoproteins. Particulars: glycoprotein starting concentration 200 nM. As for the experimental part:
Figure 1 Glycoprotein binding and complement activation by CL-K1. A) Immunoblot of CL-K1 binding to immobilised mammalian and yeast glycoproteins. B) Surface plasmon resonance of CL-K1 binding to glycoproteins. […] C3b and its breakdown products were detected by absorbance using an anti-human C3c antibody with alkaline phosphatase-conjugated goat anti-rabbit secondary antibody and p-nitrophenyl phosphate as the substrate. Protein concentrations were calculated based on the molecular masses of CL-K1 and MBL trimers (78 kDa in each case). CL-K1, collectin-K1; MBL, mannan-binding lectin.
CL-K1 was immobilised on the surface of a GLM sensor chip (Bio-Rad Laboratories Ltd (Hemel Hempstead, UK)) by amine coupling. Binding was measured in 10 mM Tris–HCl, pH 7.4 containing 140 mM NaCl, 2 mM CaCl2 and 0.005% Tween 20 at a flow rate of 25 μl/minute and at 25°C. The protein surface was regenerated in buffer containing 1 M NaCl and 5 mM EDTA.
For orientation: Surface plasmon resonance follows binding to a sensor surface in real time, without labels.

T1 sequence (Q9BWP8 26-271): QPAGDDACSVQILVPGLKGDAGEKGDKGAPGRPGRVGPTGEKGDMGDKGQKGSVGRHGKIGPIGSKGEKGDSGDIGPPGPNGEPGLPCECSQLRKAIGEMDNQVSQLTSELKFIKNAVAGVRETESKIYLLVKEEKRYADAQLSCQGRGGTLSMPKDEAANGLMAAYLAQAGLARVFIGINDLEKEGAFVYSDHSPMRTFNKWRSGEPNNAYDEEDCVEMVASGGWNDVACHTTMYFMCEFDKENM

B1: milk lactoferrin: human milk lactoferrin, contains complex sugars (protein, UniProt P02788 20-710, looked up)
Lactotransferrin: GRRRSVQWCAVSQPEATKCFQWQRNMRKVRGPPVSCIKRDSPIQCIQAIAENRADAVTLDGGFIYEAGLAPYKLRPVAAEVYGTERQPRTHYYAVAVVKKGGSFQLNELQGLKSCHTGLRRTAGWNVPIGTLRPFLNWTGPPEPIEAAVARFFSASCVPGADKGQFPNLCRLCAGTGENKCAFSSQEPYFSYSGAFKCLRDGAGDVAFIRESTVFEDLSDEAERDEYELLCPDNTRKPVDKFKDCHLARVPSHAVVARSVNGKEDAIWNLLRQAQEKFGKDKSPKFQLFGSPSGQKDLLFKDSAIGFSRVPPRIDSGLYLGSGYFTAIQNLRKSEEEVAARRARVVWCAVGEQELRKCNQWSGLSEGSVTCSSASTTEDCIALVLKGEADAMSLDGGYVYTAGKCGLVPVLAENYKSQQSSDPDPNCVDRPVEGYLAVAVVRRSDTSLTWNSVKGKKSCHTAVDRTAGWNIPMGLLFNQTGSCKFDEYFSQSCAPGSDPRSNLCALCIGDEQGENKCVPNSNERYYGYTGAFRCLAENAGDVAFVKDVTVLQNTDGNNNEAWAKDLKLADFALLCLDGKRKPVTEARSCHLAMAPNHAVVSRMDKVERLKQVLLHQQAKFGRNGSDCPDKFCLFQSETKNLLFNDNTECLARLHGKTTYEKYLGPQYVAGITNLKKCSTSPLLEACEFLRK
Turning to B1, the “binding to CL-K1 by surface plasmon resonance” value is given as “not”.
